Laboratory results: US20220041697A1 (NEW YORK UNIVERSITY, published 2022)

Tests used:
Assay in all cases: binding of antibody dilutions to peptides (FIG. 1)
[1] = molecular target: T1, Peptide Tau 386-408[phospho-serine396,404] (phosphoserine at positions 11 and 19 of SEQ ID NO: 1 (Ser396 and Ser404 of SEQ ID NO: 25))
T1 construct: For immunisation it was conjugated to KLH via a cysteine residue; also called P-Ser396, P-Ser404; diphosphorylated peptide

[2] = molecular target: T2, Tau 386-408 peptide phosphorylated only on serine 404 (phosphoserine at position 19 of SEQ ID NO: 1 (Ser404 of SEQ ID NO: 25); serine 11 not phosphorylated)
T2 construct: also called P-Ser404; P-Ser404 peptide
T2 sequence (peptide, as listed by the source): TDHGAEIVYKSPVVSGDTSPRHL

[3] = molecular target: T3, non-phosphorylated Tau peptide (Tau386-408) (none (serines 11 and 19 of SEQ ID NO: 1 not phosphorylated))
T3 construct: also called No-P; non-phosphorylated peptide

Measured: binding result

B1: Tau mAb 8B2D1 (antibody, V domains shown)
VH: EVQLQQSGPELVKPGASVKMSCKASGYTFTSYVIHWVKQKPGQGLEWIGYIYPYNDGTIYNEKFKGKATLTSDTSSSTVYMELISLTAEDSAVYWCVRERDNYGVYWGQGTTLTVSS
VL: DVLLTQTPLSLPVSLGDQASISCRSSQSIVHSNGNTYLEWYLQKPGQSPELLIYKVSNRFYGVPDRFSGSGSGTDFTLKISRVEAEDLGVYYCFQDSHIPYTFGGGTRLEIK
notes: Mouse (BALB/c) hybridoma monoclonal antibody; also called monoclonal antibody 8B2D1; anti-Tau 8B2D1 mAb
binds: [1] | [2] | [3]
